In data set [1] the target is T1, Sre1 bHLH DNA-binding domain (UniProt A0A5B8KSW3 349-477).
T1 sequence: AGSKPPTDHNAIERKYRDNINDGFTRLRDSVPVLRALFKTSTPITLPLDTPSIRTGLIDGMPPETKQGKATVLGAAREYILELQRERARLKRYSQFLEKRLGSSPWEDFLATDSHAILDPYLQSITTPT
Kind of data set: EMSA; 1.7 nM protein, 0.5 nM probe; two shifted bands; 50 mM Hepes-KOH pH 7.5, 100 mM KCl, 5 mM MgCl2, 1 mM DTT, 20% glycerol, 0.8 mg/ml BSA, 0.3 mg/ml poly(dI-dC), 22°C 30 min; gel 0.5x TBE 4°C. Conditions: protein: recombinant; tags: His-tag (pET-TEV, TEV site); chain copies: 2; blunt.

The target of data set [2] is T1, Sre1 bHLH DNA-binding domain. In words: EMSA; 1.7 nM protein, 0.5 nM probe; single (fast) shifted band; 50 mM Hepes-KOH pH 7.5, 100 mM KCl, 5 mM MgCl2, 1 mM DTT, 20% glycerol, 0.8 mg/ml BSA, 0.3 mg/ml poly(dI-dC), 22°C 30 min; gel 0.5x TBE 4°C. The note with it: protein: recombinant; tags: His-tag (pET-TEV, TEV site); chain copies: 2; label: 3' biotin; blunt.
Data set [3] shares this target. In words: EMSA; 1.7 nM protein, 0.5 nM probe; no shift; 50 mM Hepes-KOH pH 7.5, 100 mM KCl, 5 mM MgCl2, 1 mM DTT, 20% glycerol, 0.8 mg/ml BSA, 0.3 mg/ml poly(dI-dC), 22°C 30 min; gel 0.5x TBE 4°C. Conditions: protein: recombinant; tags: His-tag (pET-TEV, TEV site); chain copies: 2; blunt.

B1: probe A (HMGS SRE1+SRE2) (dsDNA)
DNA 1: CCATCGTCACTCTCGTCTCCTGACCCGTTGGGGCTATGTAACACCACACGTGACTCCACT
DNA 2: AGTGGAGTCACGTGTGGTGTTACATAGCCCCAACGGGTCAGGAGACGAGAGTGACGATGG
As for B1, the binding result in data set [1] is “binds”.

B2: SRE1+SRE2* (probe C, by order) (dsDNA)
DNA 1: CCATCGTCACTCTCGTCTCCTGACCCGTTGGGGCTATAATTCATTTTACGTGACTCCACT
DNA 2: AGTGGAGTCACGTAAAATGAATTATAGCCCCAACGGGTCAGGAGACGAGAGTGACGATGG
As for B2, in data set [2], the binding result is listed as “binds”.

B3: SRE1*+SRE2 (probe B, by order) (dsDNA)
DNA 1: CCATCGTCACTCTTTATTCTTTTTCCGTTGGGGCTATGTAACACCACACGTGACTCCACT
DNA 2: AGTGGAGTCACGTGTGGTGTTACATAGCCCCAACGGAAAAAGAATAAAGAGTGACGATGG
B3: in data set [2], the binding result is “binds”.

B4: probe D (SRE1*+SRE2*) (dsDNA)
DNA 1: CCATCGTCACTCTTTATTCTTTTTCCGTTGGGGCTATAATTCATTTTACGTGACTCCACT
DNA 2: AGTGGAGTCACGTAAAATGAATTATAGCCCCAACGGAAAAAGAATAAAGAGTGACGATGG
Consider B4, for which, in data set [3], the binding result is on record as “no binding”.
